Measured values from patent publication US20130022606A1.

target: rat prolactin receptor on Nb2 rat lymphoma cells (rat) (UniProt P05710); experiment: FACS on rat lymphoma cell line Nb2, IgG1

EC50 [nM] | Binder
1.2 | 001-E06 (IgG1) (antibody, V domains shown) VH: QVELLESGGGLVQPGGSLRLSCAASGFTFSSYWMSWVRQAPGKGLEWVSSVSDTGTDTHYADSVKGRFTISRDNSKNTLYLQMNSLRAEDTAVYYCAKTPLAYSSGWYYFDYWGQGTLVTVSS VL: DIVLTQPPSASGTPGQRVTISCSGSSSNIGSNTVNWYQQLPGTAPKLLIYRNYQRPSGVPDRFSGSKSGTSASLAISGLRSEDEADYYCQSYDSSLSGSVFGGGTKLTVLG
1.1 | XHA06.642 (antibody, V domains shown) VH: EVQLVESGGDLVKPGGSLKLSCAVSGFTFSSYGMSWVRQTPDKRLEWVATVSSGGTYTYYPDSVKGRFTISRDNAKNTLYLQMSSLKSEDSAMYYCARHRGNYYATYYYAMDYWGQGTSVTVSS VL: DIVLTQSPASLAVSLGQGATISCRASKSVSTSGYTYMHWYQQKPGQPPKLLIYLASNLESGVPARFSGSGSGTDFTLNIHPVEEEDAATYYCQHSGELPPSFGGGTKLEIKR
0.9 | HE06.642 (antibody, V domains shown) VH: EVQLVESGGGLVQPGGSLRLSCAVSGFTFSSYGMSWVRQAPGKGLEWVATVSSGGTYTYYPDSVKGRFTISRDNSKNTLYLQMNSLRAEDTAVYYCARHRGNYYATYYYAMDYWGQGTLVTVSS VL: DIVLTQSPDSLAVSLGERATINCKASKSVSTSGYTYMHWYQQKPGQPPKLLIYLASNRESGVPDRFSGSGSGTDFTLTISPVQAEDVATYYCQHSGELPPSFGQGTKLEIKR
